Patent publication US20190112392A1 (Ablynx, published 2019)
Substitutions are numbered along the chain they refer to.

What was measured:
[1] = target: T1, soluble recombinant cynomolgus TCR alpha/beta-zipper protein (cynomolgus/rhesus monkey); assay: ELISA, coated soluble cynomolgus TCR-zipper
T1 construct: Made in house in CHOK1SV cells; extracellular domains fused to a zipper protein; also called cynoTCR-zipper protein; not shown: zipper protein (O'Shea et al. 1993)
T1 V domain 1: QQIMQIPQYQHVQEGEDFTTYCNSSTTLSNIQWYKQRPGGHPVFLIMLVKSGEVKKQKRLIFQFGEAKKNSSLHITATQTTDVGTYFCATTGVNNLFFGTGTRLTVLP
T1 V domain 2: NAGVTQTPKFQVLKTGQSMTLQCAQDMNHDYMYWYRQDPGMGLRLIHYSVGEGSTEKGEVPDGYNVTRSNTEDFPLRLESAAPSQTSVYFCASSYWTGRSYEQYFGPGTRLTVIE
Experimental: (§1) Quality of the TCR α/β zipper proteins was assessed in an ELISA binding assay. Maxisorp 96-well ELISA plates (Nunc) were coated with 2 μg/mL soluble recombinant human TCR α/β (2XN9)-zipper protein or soluble recombinant cynomolgus TCR α/β-zipper protein. After an overnight incubation, plates were washed and blocked with PBS+1% casein for 1 h at room temperature. Next, plates were incubated with serial dilutions of either a functional flag tagged Nanobody or the functional mouse IgG anti-non-human primate/Rat TCRα/β antibody, clone R73 (eBioscience 16-5960) for 1 h at room temperature while shaking, washed again and incubated with mouse anti-flag-HRP (Sigma, #A8592) respectively rabbit anti-mouse-HRP (Dako, # P0260). After 1 h, TMB One Solution (Promega #G7431) was added. The reaction was stopped with 2M H₂SO₄ and the dose dependent binding was determined by measuring the OD at 450 nm using the Tecan sunrise 4 (FIG. 2).
Binding of purified monovalent anti-TCR Nanobodies to soluble recombinant cynomolgus TCR c/3 protein was evaluated in ELISA (as described in Example 1.2) using 2 μg/ml directly coated recombinant soluble cynomolgus TCR-α/β zipper protein.

[2] = target: T1, soluble recombinant cynomolgus TCR …; assay: BLI (Octet RED384), immobilized cynomolgus TCR-zipper
[3] = target: T2, human CD3 expressed on HEK293H cells (human, UniProt P04234 22-171; P09693 23-182; P07766 23-207; P20963 22-164); assay: flow cytometry, HEK293H human CD3 cells
T2 construct: also called HEK293H human CD3; HEK293H CD3
T2 sequence (P04234 22-171 limits assumed, chain 1 of 4): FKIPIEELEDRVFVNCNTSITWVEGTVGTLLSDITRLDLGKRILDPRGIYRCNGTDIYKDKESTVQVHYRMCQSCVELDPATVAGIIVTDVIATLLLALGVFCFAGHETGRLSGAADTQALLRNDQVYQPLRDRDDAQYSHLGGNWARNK
T2 sequence (P09693 23-182 limits assumed, chain 2 of 4): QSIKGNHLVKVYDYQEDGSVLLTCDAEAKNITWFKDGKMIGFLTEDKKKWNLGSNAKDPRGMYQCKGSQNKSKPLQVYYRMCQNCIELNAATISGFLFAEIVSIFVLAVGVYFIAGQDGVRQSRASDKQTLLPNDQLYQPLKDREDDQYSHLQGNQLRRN
T2 sequence (P07766 23-207 limits assumed, chain 3 of 4): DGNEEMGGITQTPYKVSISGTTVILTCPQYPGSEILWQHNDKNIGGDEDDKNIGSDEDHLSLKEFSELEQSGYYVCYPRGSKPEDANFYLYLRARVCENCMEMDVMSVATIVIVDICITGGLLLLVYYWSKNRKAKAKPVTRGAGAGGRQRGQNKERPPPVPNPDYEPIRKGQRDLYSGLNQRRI
T2 sequence (P20963 22-164 limits assumed, chain 4 of 4): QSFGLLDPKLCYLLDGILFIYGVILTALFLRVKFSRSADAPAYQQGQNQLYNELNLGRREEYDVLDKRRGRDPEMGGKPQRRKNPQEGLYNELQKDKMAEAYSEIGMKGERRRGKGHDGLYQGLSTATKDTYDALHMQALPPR
Experimental: (§2) Binding of purified monovalent anti-TCR Nanobodies to human TCR(2IAN)/CD3 expressed on HEK293H cells was evaluated and compared with the binding to HEK293H cells transfected with human CD3 in flow cytometry, as outlined in Example 5. Dilution series of anti-TCR Nanobodies starting from 1 μM were applied to the cells. The parental HEK293H cell line was included as TCR/CD3 negative cell line.
Nanobodies clearly bound to human TCR(2IAN)/CD3 expressed on HEK293H but not to the HEK293H cells transfected with human CD3 only, nor to the HEK293H parental cell line. The EC50 values obtained from the dose response curve are depicted in Table C-2.

[4] = target: T3, T cell receptor alpha/beta on purified primary human T cells (human, UniProt P01848 1-140; P01850 1-176); assay: flow cytometry, purified primary human T cells
T3 construct: whole, on cells; also called human primary T cells
T3 TCR alpha (looked up): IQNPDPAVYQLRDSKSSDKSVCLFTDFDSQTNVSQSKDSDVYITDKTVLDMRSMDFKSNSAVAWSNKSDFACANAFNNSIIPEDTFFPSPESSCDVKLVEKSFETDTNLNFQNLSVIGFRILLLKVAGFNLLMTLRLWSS
T3 TCR beta (looked up): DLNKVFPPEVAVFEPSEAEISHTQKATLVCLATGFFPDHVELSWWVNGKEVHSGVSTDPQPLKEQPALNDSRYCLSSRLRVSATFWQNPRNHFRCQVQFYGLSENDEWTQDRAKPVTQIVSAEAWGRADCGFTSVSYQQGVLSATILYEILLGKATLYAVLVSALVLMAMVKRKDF
Experimental: Periplasmic extracts were screened for cell expressed TCR/CD3 binding using human TCR/CD3 transfected CHO-K1 or HEK293H cells and the respective CHO-K1 or HEK293H reference cell line in a mixed cell line setup. To this end, a large batch of the reference cell lines were labelled with 8 μM PKH26 and frozen. 5×10⁴ PKH labelled reference cells were mixed with 5×10⁴ target cells and incubated with periplasmic extracts for 30 min at 4′C, and washed 3 times. […] Samples were washed, resuspended in FACS Buffer (D-PBS from Gibco, with 10% FBS from Sigma and 0.05% sodium azide from Merck) and then analysed via a BD FACSArray. […] In this gate, 20,000 cells were counted during acquisition. Based on PKH26-SSC distribution, the PKH labelled parental population and the human TCR/CD3 unlabelled target population was selected. For these 2 populations the mean APC value was calculated.
Binding of purified monovalent anti-TCR Nanobodies to human TCR(2XN9)/CD3 expressed on CHO-K1 cells and to purified primary human T cells was evaluated in flow cytometry as outlined in Example 4.1.

[5] = target: T1, soluble recombinant cynomolgus TCR …; assay: BLI (Octet RED384), immobilized cynomolgus TCR-zipper
Experimental: Binding affinities were measured using Bio-Layer Interferometry (BLI) on an Octet RED384 instrument (Pall ForteBio Corp.). Recombinant human soluble TCR(2XN9)-zipper protein was covalently immobilized on amine-reactive sensors (ForteBio) via NHS/EDC coupling chemistry. For kinetic analysis, sensors were first dipped into running buffer (10 mM Hepes, 150 mM NaCl, 0.05% p20, pH7.4 from GE Healthcare Life Sciences) to determine baseline setting. […] Affinity constants (KD) were calculated applying a 1:1 interaction model using the ForteBio Data Analysis software.
Binding affinities of the monovalent anti-TCR Nanobodies were measured using Bio-Layer Interferometry (BLI) on an Octet RED384 instrument (Pall ForteBio Corp.) essentially as described in Example 7.1 using cynomolgus TCR α/β zipper.

[6] = target: T2, human CD3 expressed on HEK293H cells; assay: flow cytometry on HEK293H human CD3 cells, MCF
Experimental: as §2

EGFR on cells = target: T4, EGFR on cells (UniProt P00533 25-1210, limits assumed); assay: flow cytometry on HER14 cells, MeanFI (PE)
T4 construct: whole, on cells; also called HER14 cells (NIH3T3 transfected with EGFR); EGFR on LS174T and LoVo cells

[7] = target: T1, soluble recombinant cynomolgus TCR …; assay: ELISA, 2 µg/mL coated soluble recombinant cynomolgus TCR α/β-zipper protein, OD 450 nm
Experimental: as §1

human CD20 on cells [8] = target: T5, human CD20 on cells (human, UniProt P11836 1-297); assay: cell-based or functional assay
T5 sequence (looked up): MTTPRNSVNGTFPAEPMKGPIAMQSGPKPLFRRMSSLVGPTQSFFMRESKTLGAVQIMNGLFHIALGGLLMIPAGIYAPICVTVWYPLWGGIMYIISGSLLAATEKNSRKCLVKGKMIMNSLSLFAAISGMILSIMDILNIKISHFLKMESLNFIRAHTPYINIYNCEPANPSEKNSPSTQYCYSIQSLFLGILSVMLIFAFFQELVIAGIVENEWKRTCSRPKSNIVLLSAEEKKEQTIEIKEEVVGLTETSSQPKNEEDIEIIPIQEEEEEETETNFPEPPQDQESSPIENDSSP

[9] = target: T6, T cell receptor alpha/beta on primary cynomolgus T cells (cynomolgus); assay: cell-based or functional assay
[10] = target: T6, T cell receptor alpha/beta on primary …; assay: cell-based or functional assay; remark: listed apart in the source
[11] = target: T6, T cell receptor alpha/beta on primary …; assay: cell-based or functional assay; remark: listed apart in the source
human CD20 on cells [12] = target: T5, human CD20 on cells; assay: flow cytometry, Ramos cells
human CD20 on cells [13] = target: T5, human CD20 on cells; assay: cell-based or functional assay; remark: listed apart in the source
[14] = target: T3, T cell receptor alpha/beta on purified …; assay: flow cytometry, purified primary human T cells
[15] = target: T6, T cell receptor alpha/beta on primary …; assay: cell-based or functional assay; remark: listed apart in the source
[16] = target: T3, T cell receptor alpha/beta on purified …; assay: flow cytometry, purified primary human T cells; purified primary human T cells
human CD20 on cells [17] = target: T5, human CD20 on cells; assay: flow cytometry on Ramos cells, MCF (Mean PE)
human CD20 on cells [18] = target: T5, human CD20 on cells; assay: flow cytometry on Raji cells, MCF (Mean PE)

B1: T0170055A02 (VHH)
VHH: EVQLVESGGGLVQPGGSLRLSCAASGDVHKINILGWYRQAPAKEREMVAHITIGDATDYADSAKGRFTISRDEAKNMVYLQMNSLKPEDTAVYFCRAYSRIYPYNYWGQGTLVTVSS
notes: Monovalent anti-TCR Nanobody, cluster A; expressed in E. coli as triple Flag, His6-tagged protein; also called T0170PMP055A02; T01700055A02; not shown: C-terminal triple Flag-His6 tag of the E. coli-made monovalent Nanobody
- EC50 [1]: 160 nM
- fold lower affinity than for soluble recombinant human TCR α/β zipper [2]: 10 fold
- MCF at 1 µM [3]: 1190 MCF
- EC50 [4]: 91 nM
- Kd [5]: 210 nM
- koff [5]: 0.024 s⁻¹
- kon [5]: 110000 M⁻¹ s⁻¹
- binding result [6]: no binding (tested: 1e-6 M)

B2: T0170056G05 (VHH)
VHH: B1 VHH with A23V, I33F, A42G, M47K, T52S, A56Q, A74S, Y98F, N105D
notes: Monovalent anti-TCR Nanobody, cluster A; expressed in E. coli as triple Flag, His6-tagged protein; also called T0170PMP056G05; T01700056G05; not shown: C-terminal triple Flag-His6 tag of the E. coli-made monovalent Nanobody
- EC50 [1]: 77 nM
- fold lower affinity than for soluble recombinant human TCR α/β zipper [2]: 10 fold
- MCF at 1 µM [3]: 352 MCF
- binding result (EGFR on cells): no binding (tested: 5e-7 M)
- EC50 [4]: 91 nM
- Kd [5]: 150 nM
- koff [5]: 0.016 s⁻¹
- kon [5]: 110000 M⁻¹ s⁻¹
- binding result [6]: no binding (tested: 1e-6 M)

B3: cAblys (VHH)
VHH: DVQLQASGGGSVQAGGSLRLSCAASGYTIGPYCMGWFRQAPGKEREGVAAINMGGGITYYADSVKGRFTISQDNAKNTVYLLMNSLEPEDTAIYYCAADSTIYASYYECGHGLSTGGYGYDSWGQGTQVTVSS
notes: also called cAblys3; irrelevant anti-egg lysozyme Nanobody
- binding result [7]: no binding (tested: 1e-6 M)

B4: T017000076 (bispecific antibody)
chain: EVQLVESGGGLVQPGGSLRLSCTFSGGTFSSYTMGWFRQAPGKEREFVAEVRWGGVTTYSNSLKDRFSISEDSVKNAVYLQMNSLKPEDTAVYYCAAVRQMYMTVVPDYWGQGTLVTVSSGGGGSGGGGSGGGGSGGGGSGGGGSGGGGSGGGGSEVQLVESGGGLVQPGGSLRLSCVASGDVHKINFLGWYRQAPGKEREKVAHISIGDQTDYADSAKGRFTISRDESKNMVYLQMNSLKPEDTAVYFCRAFSRIYPYDYWGQGTLVTVSSGAADYKDHDGDYKDHDIDYKDDDDKGAAHHHHHH
notes: CD20 x TCR bispecific Nanobody construct (cluster A); entry includes the FLAG3-HIS6 tag; also called 20CD019C07-35GS-T0170056G05-FLAG3-HIS6
- IC50, flow cytometry based human T cell mediated Ramos killing assay, E:T 10:1 (human CD20 on cells [8]): 0.3 nM
- IC50, flow cytometry based cynomolgus T cell mediated B cell (Ramos) killing assay [9]: 0.309 nM
- IC50, cynomolgus T cell dependent B cell (Ramos) killing assay [10]: 0.52 nM
- IC50, xCELLigence cynomolgus T cell mediated CHO-K1 human CD20 killing assay [11]: 0.14 nM
- EC50 (human CD20 on cells [12]): 1.8 nM
- IC50, xCELLigence human T cell mediated CHO-K1 CD20 killing assay, E:T 30:1, 44 h (human CD20 on cells [13]): 0.36 nM
- EC50 [14]: 130 nM
- IC50, xCELLigence cynomolgus T cell mediated CHO-K1 human CD20 killing assay, E:T 30:1 [15]: 0.67 nM

B5: T017000068 (bispecific antibody)
chain: EVQLVESGGGLVQPGGSLRLSCTFSGGTFSSYTMGWFRQAPGKEREFVAEVRWGGVTTYSNSLKDRFSISEDSVKNAVYLQMNSLKPEDTAVYYCAAVRQMYMTVVPDYWGQGTLVTVSSGGGGSGGGGSGGGGSGGGGSGGGGSGGGGSGGGGSEVQLVESGGGLVQPGGSLRLSCITSGETFKINIWGWYRQAPGKQRELVASLTIGGATNYADSVKGRFTISEDSAKNTVYLQMNSLKPEDTAVYFCNAKSRLYPYDYWGQGTLVTVSSGAADYKDHDGDYKDHDIDYKDDDDKGAAHHHHHH
notes: CD20 x TCR bispecific Nanobody construct (cluster B); entry includes the FLAG3-HIS6 tag; also called 20CD019C07-35GS-T0170055C07-FLAG3-HIS6
- IC50, flow cytometry based human T cell mediated Ramos killing assay, E:T 10:1 (human CD20 on cells [8]): 1 nM
- EC50 (human CD20 on cells [12]): 1.8 nM
- IC50, xCELLigence human T cell mediated CHO-K1 CD20 killing assay, E:T 30:1, 44 h (human CD20 on cells [13]): 13 nM
- EC50 [16]: 6.2 nM

B6: anti-CD20 Nanobody (VHH)
VHH: EVQLVESGGGLVQPGGSLRLSCTFSGGTFSSYTMGWFRQAPGKEREFVAEVRWGGVTTYSNSLKDRFSISEDSVKNAVYLQMNSLKPEDTAVYYCAAVRQMYMTVVPDYWGQGTLVTVSS
- EC50 (read off the curve) (human CD20 on cells [17]): ~9 nM
- EC50 (read off the curve) (human CD20 on cells [18]): ~20 nM
